Target: T1, His-tagged cytoplasmic part of AtoS (232–608aa, cyto-AtoS) (Escherichia coli K-12, UniProt Q06067 232-608)
T1 construct: AtoS of Escherichia coli K-12, cytoplasmic part, residues 232-608; also called His-cyto-AtoS; His-AtoS; source: E. coli BL21 [DE3], purified (Ni2+-NTA agarose)
T1 sequence (looked up): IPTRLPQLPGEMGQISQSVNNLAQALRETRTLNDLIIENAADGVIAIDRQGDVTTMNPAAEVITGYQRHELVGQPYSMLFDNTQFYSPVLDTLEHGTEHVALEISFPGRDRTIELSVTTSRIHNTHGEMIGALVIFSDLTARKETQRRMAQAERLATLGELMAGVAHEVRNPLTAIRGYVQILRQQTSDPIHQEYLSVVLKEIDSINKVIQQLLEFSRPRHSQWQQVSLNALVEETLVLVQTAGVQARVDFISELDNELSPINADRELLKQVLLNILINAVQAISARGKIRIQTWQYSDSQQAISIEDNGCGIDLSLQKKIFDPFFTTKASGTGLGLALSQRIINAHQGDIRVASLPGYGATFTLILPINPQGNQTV
Assay: pull-down; GST-MinD (5 μM) with His-cyto-AtoS (5 μM) in 50 mM Hepes pH 7.4, 150 mM KCl, room temperature 30 min; His-cyto-AtoS held on HisPure cobalt resin, 1 h at 4 °C; washed with 20 mM imidazole, eluted with 300 mM imidazole; Western blot with anti-GST and anti-His
Conditions: both partners purified

B1: GST-MinD (natural protein, Escherichia coli K-12, UniProt P0AEZ3 1-270, looked up)
chain: MARIIVVTSGKGGVGKTTSSAAIATGLAQKGKKTVVIDFDIGLRNLDLIMGCERRVVYDFVNVIQGDATLNQALIKDKRTENLYILPASQTRDKDALTREGVAKVLDDLKAMDFEFIVCDSPAGIETGALMALYFADEAIITTNPEVSSVRDSDRILGILASKSRRAENGEEPIKEHLLLTRYNPGRVSRGDMLSMEDVLEILRIKLVGVIPEDQSVLRASNQGEPVILDINADAGKAYADTVERLLGEERPFRFIEEEKKGFLKRLFGG
notes: MinD of Escherichia coli K-12; ORF amplified from E. coli K-12 genomic DNA; also called GST-tagged MinD; source: dialyzed against 50 mM Hepes pH 7.4, 150 mM KCl, 10% glycerol
B1: binds.

— article PMC10963238, “The bacterial division protein MinDE has an independent function in flagellation” (The Journal of Biological Chemistry, 2024)
